Measured values: patent US20230051715A1 (MABWELL THERAPEUTICS, published 2023)
Numbering of substitutions follows the chain as printed. Numbers in names are those of the source. One block for each binder: values may come before it.

Tests used:
[1] = molecular target: T1, human C1s proenzyme (CompTech A103) (human, UniProt P09871 16-688); assay: BLI (Octet RED96e), antibody on AHC biosensor; HuC1s Form: Proenzyme; R^2 0.9994
T1 construct: also called proenzyme human C1s (native C1s)
T1 sequence (looked up): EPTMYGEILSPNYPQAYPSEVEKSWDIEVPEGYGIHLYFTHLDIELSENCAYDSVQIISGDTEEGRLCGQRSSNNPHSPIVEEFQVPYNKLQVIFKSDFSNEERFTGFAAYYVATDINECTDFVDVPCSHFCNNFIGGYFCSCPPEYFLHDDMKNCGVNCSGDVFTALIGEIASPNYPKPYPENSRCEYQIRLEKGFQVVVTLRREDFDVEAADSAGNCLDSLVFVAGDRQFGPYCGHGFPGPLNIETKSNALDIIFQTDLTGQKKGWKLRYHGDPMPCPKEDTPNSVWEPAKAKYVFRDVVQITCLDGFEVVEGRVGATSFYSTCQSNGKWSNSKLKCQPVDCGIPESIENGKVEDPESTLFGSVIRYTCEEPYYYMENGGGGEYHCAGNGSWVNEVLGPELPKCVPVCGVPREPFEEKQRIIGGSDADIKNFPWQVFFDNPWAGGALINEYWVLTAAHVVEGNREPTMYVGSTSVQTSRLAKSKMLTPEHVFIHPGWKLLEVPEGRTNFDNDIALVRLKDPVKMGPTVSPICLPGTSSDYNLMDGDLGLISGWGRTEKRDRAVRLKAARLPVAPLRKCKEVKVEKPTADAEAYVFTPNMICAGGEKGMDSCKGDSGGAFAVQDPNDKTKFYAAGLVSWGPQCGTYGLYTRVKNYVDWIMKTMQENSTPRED
Method: Bio-Layer Interferometry technology was used for anti-C1s antibody affinity measurement and binding kinetics determinations with OCTET® RED96e system (Sartorius AG). Pre-hydrated Anti-Human IgG Fc Capture (AHC) biosensors were first equilibrated in 1×KB (Kinetic Buffer, 1×PBS pH 7.4+0.02% Tween-20+0.1% BSA) for 120 sec for the first baseline, followed by loading with […] anti-C1s antibody (2-7, FIG. 3A; 2-8, FIG. 3B; hz2-7(H1L2), FIG. 3C; hz2-8(H1L2 G80A/T82A, FIG. 3D) onto AHC biosensors for 240 sec. Then, the second baseline signal was established for 120 sec before association with various concentrations of active human C1s (CompTech A104) for 240-360 sec. At last, analyte was dissociated in 1×KB for 360 sec. Anti-C1s antibodies 2-7 and 2-8 were also analyzed against human C1s proenzyme (CompTech A103) (data not shown). Data analysis was carried out using OCTET® Data Analysis HT Software (Sartorius AG). KD, kₒₙ, koff and R² values were calculated for each antibody and target combination, as summarized in FIG. 3E showing high affinity binding with KD values in the low nanomolar to picomolar range.

[2] = molecular target: T2, human C1s mutant M9 (K336G, D343Y & E351A) (human, UniProt P09871 16-688); assay: ELISA, plate coated with human C1s mutant M9: K336G, D343Y, E351A, OD450nm
T2 construct: The entry is the mutant itself
T2 sequence: T1 sequence (looked up) with K336G, D343Y, E351A
Method: ELISA was carried out by first coating 96-well plates with 200 ng/well of full-length or truncated C1s proteins overnight. The next morning, plates were blocked with SuperBlock T20 blocking buffer (Thermo Scientific 37536) for 1 h with gentle shaking. Then, various concentrations of anti-C1s antibodies diluted in SuperBlock T20 blocking buffer were added to the plates and incubated for 1 h with gentle shaking. Mouse IgG (Sigma-Aldrich 15381) and human IgG1 (BioXCell BP0297) were used as negative controls. The plates were washed before incubating with HRP conjugated secondary antibodies diluted in SuperBlock T20 blocking buffer (goat anti-mouse IgG (H+L) cross-adsorbed secondary antibody HRP (Invitrogen G-21040) or goat anti-human IgG antibody, HRP conjugate (Millipore AP309P)) for 1 h with gentle shaking. At last, the plates were washed and color developed with ELISA liquid HRP substrate (Sigma-Aldrich), followed by stopping the reaction with addition of 1M H₂SO₄ in the same volume as the ELISA liquid substrate. Bound antibody was measured by absorbance at OD₄₅₀ₙₘ.
Binding of anti-C1s antibodies to mutants M1-M20 of human C1s was measured by ELISA as described in Example 4, and results are shown in FIGS. 6B-6U. […]

Kd [1]: 0.14 nM
koff [1]: 4.8e-05 s⁻¹
kon [1]: 350000 M⁻¹ s⁻¹
B1: Anti-C1s antibody 2-7 (antibody, human IgG1, kappa, V domains shown)
VH: EVKLEESGGGLVPPGGSMKLSCVASGFTFSNYFMNWVRQSPEKGLEWVAEIRLKFTNYATHYAESVEGRFTISRDDSKSSVYLQMNNLRAEDTGIYYCTRDYGSRNGYFDYWGQGTTLTVSS
VL: DIVMTQAAPSVPVTPGESVSISCRSSKSLLHSNGNTFLYWFLQRPGQSPQLLIYRMSNLASGVPDRFSGSGSGTAFTLRVSRVEAEDVGIYYCMQHLEYPYTFGGGTKLEIKT
notes: the HC/LC entries may hold it too; also called clone 2-7

binding result [2]: no binding (tested: 1000 ng/ml (Log 3))
B2: Anti-C1s antibody hz2-8 (H1L2 G80A/T82A) (antibody, V domains shown)
VH: QVQLVQSGAEVKKPGASVKVSCKASGFNIKEYYMHWVRQAPEQGLEWMGWIDPENADAIYAQKFQGRVTITADTSTNTAYMELSSLRSEDTAVYYCARSRLFFAYWGQGTLVTVSS
VL: DIQMTQSPKSLSASVGDRVTITCRASQDVRTALDWYQQKPGQSPKLLIYSASYRYSGVPSRFSGSGSGTDFTLTISSLQPEDFATYYCQQQYTTPYTFGQGTKLEIKR
notes: Humanized variant with G80A and T82A in HC CDR2 (already in the entry), human IgG1 / kappa
